2 molecules from article PMC2680354 (Molecular cell, 2008) can be followed below.

The experiment deals with Arp2/3 complex (UniProt P61158 1-418). The experiment in a line: fluorescence polarisation. On the technique in general: In fluorescence polarisation assays a small probe gives low polarisation when free and higher when bound to something large.

B1: chemically crosslinked WASP VCA (xlWASP VCA) (other)
chain: GGRGALLDQIRQGIQLNKTPGAPESSALQPPPQSSEGLVGALMHVMQKRSRAIHSSDEGEDQAGDEDEDDEWDD
modifications: chemically crosslinked to the second copy (crosslinker and site not shown)
The molecule B1 had a Kd of 70 nM.

B2: cortactin NtA (peptide)
chain: MWKASAGHAVSITQDDGGADDWETDPDFVNDVSEKEQRWGAKTVQGSGHQEHINIHKLRENVFQEHQTLKEKELETGPKASHGY
On to B2, for which the Kd came out at 17 nM.

As usually defined, the Kd is a measure of binding affinity in units of concentration. A higher Kd goes with a looser complex.
